Measurements: paper PMC9599826, “Selecting Multitarget Peptides for Alzheimer’s Disease” (Biomolecules, 2022)

Molecular target: Recombinant human TLR4/myeloid differentiation factor 2 (MD-2) complex (human) (UniProt O00206)
Sequence (O00206 24-631, chain 1 of 2): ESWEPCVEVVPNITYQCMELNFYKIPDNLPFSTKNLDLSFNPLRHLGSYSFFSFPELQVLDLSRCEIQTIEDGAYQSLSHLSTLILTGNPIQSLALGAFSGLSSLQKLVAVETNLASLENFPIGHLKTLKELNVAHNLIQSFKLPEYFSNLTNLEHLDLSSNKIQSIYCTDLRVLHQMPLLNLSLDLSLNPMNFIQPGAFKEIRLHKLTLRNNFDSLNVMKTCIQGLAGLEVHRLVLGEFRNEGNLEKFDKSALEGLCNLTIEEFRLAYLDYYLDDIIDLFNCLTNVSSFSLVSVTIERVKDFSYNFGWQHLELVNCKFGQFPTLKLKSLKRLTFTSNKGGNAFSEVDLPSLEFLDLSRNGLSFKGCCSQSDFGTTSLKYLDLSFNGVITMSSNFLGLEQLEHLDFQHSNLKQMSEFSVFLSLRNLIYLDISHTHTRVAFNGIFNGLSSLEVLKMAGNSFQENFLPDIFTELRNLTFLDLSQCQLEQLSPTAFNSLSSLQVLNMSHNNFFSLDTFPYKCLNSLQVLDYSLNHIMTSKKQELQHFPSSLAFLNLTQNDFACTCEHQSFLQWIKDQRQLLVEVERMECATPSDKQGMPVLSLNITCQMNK
Sequence (Q9Y6Y9 19-160, chain 2 of 2, further chain): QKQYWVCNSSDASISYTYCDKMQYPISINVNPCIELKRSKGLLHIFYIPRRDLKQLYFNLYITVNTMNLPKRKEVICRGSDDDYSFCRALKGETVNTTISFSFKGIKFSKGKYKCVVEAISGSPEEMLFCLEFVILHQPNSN

B1: Recombinant human calcium binding protein S100A9 (natural protein)
chain: MTCKMSQLERNIETIINTFHQYSVKLGHPDTLNQGEFKELVRKDLQNFLKKENKNEKVIEHIMEDLDTNADKQLSFEEFIMLMARLTWASHEKMHEGDEGPGHHHKPGLGEGTP
Question: For B1, which EC50 of TLR4 activation in HEK-Blue hTLR4 reporter cells (SEAP production), S100A9 0.5-50 nM, 24 h is on record?
Answer: 0.7 nM
